These results are taken from paper PMC3642127, “Distinguishable In Vitro Binding Mode of Monomeric TRBP and Dimeric PACT with siRNA” (PLoS ONE, 2013).

One may read the Kd as a measure of binding affinity in units of concentration.

Settings in all cases: protein: recombinant; tags: N-His6;C-myc; label: 32P guide strand; 2 nt 3' overhangs
One data set deals with T1, TRBP-dsRBDmt2 (human, UniProt Q15633 1-366, K210A;K211A).
T1 sequence: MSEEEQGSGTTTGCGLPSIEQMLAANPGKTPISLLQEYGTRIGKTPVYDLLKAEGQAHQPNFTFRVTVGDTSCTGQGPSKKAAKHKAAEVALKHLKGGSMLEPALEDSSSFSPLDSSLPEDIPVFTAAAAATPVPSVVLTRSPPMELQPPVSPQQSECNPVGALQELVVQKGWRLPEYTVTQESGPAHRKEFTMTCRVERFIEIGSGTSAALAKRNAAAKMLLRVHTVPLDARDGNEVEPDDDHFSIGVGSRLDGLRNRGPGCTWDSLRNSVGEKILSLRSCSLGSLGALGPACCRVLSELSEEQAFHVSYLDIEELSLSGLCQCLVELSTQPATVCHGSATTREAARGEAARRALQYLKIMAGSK
In words: EMSA; single-step complex; EMSA: 20 mM Tris pH 7.5, 150 mM NaCl, 2 mM EDTA, 1 mM 2-mercaptoethanol, 1 mM DTT, 50 ng/ul salmon sperm DNA, 0.4 U/ul RNasin, 0.5 nM 32P-siRNA, 30 min on ice. On the technique in general: In EMSA bound probe runs differently from free probe, usually more slowly.

Another data set has as its target T2, TRBP-dsRBDmt1 (human, UniProt Q15633 1-366, K80A;K81A).
T2 sequence: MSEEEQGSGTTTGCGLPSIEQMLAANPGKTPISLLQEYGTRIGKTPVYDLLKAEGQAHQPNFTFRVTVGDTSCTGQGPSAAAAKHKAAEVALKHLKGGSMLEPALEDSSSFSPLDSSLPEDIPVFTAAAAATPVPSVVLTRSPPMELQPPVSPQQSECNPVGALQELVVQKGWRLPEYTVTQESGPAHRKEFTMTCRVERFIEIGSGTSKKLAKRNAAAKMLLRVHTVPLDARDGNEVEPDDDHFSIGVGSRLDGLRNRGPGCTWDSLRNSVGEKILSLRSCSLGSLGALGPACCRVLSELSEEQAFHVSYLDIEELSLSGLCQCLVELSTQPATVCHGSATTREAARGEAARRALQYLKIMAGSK
The description is as above.

In another data set the target is T3, TRBP-dsRBDmt1+2 (human, UniProt Q15633 1-366, K80A;K81A;K210A;K211A).
T3 sequence: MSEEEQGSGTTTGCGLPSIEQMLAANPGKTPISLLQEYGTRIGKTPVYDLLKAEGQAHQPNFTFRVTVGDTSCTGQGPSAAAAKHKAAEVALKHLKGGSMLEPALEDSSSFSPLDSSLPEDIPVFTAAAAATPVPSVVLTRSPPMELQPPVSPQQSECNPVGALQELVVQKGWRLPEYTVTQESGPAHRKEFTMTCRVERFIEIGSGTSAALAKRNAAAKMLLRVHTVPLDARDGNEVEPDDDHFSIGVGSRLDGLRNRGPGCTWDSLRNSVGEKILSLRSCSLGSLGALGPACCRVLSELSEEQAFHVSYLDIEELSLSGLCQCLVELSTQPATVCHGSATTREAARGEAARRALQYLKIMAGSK
In words: EMSA; virtually no binding; Kd ND; EMSA: 20 mM Tris pH 7.5, 150 mM NaCl, 2 mM EDTA, 1 mM 2-mercaptoethanol, 1 mM DTT, 50 ng/ul salmon sperm DNA, 0.4 U/ul RNasin, 0.5 nM 32P-siRNA, 30 min on ice.

A further data set deals with T4, TRBP-WT (human, UniProt Q15633 1-366).
T4 sequence: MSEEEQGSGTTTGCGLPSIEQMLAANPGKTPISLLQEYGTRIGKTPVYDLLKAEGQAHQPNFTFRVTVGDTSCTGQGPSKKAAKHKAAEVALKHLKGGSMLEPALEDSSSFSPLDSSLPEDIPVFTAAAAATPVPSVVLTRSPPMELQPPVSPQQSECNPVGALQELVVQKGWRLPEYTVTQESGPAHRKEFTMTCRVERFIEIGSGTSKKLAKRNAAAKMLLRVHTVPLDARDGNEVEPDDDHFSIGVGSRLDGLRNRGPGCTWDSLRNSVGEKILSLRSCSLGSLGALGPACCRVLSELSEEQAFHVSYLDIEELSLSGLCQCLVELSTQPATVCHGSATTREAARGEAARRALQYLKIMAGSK
In words: EMSA; complex 1 (monomer); EMSA: 20 mM Tris pH 7.5, 150 mM NaCl, 2 mM EDTA, 1 mM 2-mercaptoethanol, 1 mM DTT, 50 ng/ul salmon sperm DNA, 0.4 U/ul RNasin, 0.5 nM 32P-siRNA, 30 min on ice.

The next data set addresses T5, TRBP-ΔdsRBD3 (human, UniProt Q15633 1-292).
T5 sequence: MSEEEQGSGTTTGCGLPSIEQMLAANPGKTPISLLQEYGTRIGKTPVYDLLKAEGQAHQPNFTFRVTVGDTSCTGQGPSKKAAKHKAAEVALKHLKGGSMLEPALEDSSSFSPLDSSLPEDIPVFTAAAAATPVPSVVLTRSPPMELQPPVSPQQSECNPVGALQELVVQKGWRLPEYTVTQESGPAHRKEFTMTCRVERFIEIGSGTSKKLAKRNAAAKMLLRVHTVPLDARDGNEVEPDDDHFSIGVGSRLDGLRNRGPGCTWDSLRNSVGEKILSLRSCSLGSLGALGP
In words: EMSA; complex 1; EMSA: 20 mM Tris pH 7.5, 150 mM NaCl, 2 mM EDTA, 1 mM 2-mercaptoethanol, 1 mM DTT, 50 ng/ul salmon sperm DNA, 0.4 U/ul RNasin, 0.5 nM 32P-siRNA, 30 min on ice.

B1: siLuc2-153 (dsRNA)
RNA 1: UCGAAGUAUUCCGCGUACGUG
RNA 2: CGUACGCGGAAUACUUCGAUU
On to B1, for which the Kd turned out to be 520 nM in the data set with TRBP-dsRBDmt2, 260 nM in the data set with TRBP-dsRBDmt1, 4 nM with TRBP-WT and 12 nM with TRBP-ΔdsRBD3. The binding result with TRBP-dsRBDmt1+2 is “no binding”.
